Numbering of substitutions follows the chain as printed. Names and notes keep the numbering of the source. Blank lines part the entries; values can stand above or below the binder they belong to.
Tests used:
[1] = target: T1, human IL-2 receptor (IL-2Rα, IL-2Rβ, IL-2Rγ) (human, UniProt P01589 22-272; P14784 27-551; P31785 23-369); experiment: cell-based or functional assay
T1 sequence (looked up) 1: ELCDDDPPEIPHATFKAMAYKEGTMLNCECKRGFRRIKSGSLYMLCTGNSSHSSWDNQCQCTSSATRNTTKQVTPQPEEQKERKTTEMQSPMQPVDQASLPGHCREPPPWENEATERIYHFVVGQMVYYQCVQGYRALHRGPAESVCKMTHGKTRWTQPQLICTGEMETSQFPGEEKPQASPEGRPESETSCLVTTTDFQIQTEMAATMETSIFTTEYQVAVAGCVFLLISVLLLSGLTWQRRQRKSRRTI
T1 sequence (looked up) 2: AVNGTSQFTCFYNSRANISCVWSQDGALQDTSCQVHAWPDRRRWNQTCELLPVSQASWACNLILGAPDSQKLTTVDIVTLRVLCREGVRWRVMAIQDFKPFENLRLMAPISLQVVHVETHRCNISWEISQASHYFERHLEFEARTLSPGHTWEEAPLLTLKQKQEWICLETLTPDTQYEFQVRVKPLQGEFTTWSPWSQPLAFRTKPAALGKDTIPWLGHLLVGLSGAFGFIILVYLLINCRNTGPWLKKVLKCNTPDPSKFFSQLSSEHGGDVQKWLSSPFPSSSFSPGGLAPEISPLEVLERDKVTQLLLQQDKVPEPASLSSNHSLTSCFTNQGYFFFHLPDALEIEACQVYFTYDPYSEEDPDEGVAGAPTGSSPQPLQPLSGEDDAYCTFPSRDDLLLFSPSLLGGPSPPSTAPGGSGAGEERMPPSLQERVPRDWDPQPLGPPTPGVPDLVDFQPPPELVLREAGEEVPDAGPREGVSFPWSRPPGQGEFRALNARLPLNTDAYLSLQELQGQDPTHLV
T1 sequence (looked up) 3: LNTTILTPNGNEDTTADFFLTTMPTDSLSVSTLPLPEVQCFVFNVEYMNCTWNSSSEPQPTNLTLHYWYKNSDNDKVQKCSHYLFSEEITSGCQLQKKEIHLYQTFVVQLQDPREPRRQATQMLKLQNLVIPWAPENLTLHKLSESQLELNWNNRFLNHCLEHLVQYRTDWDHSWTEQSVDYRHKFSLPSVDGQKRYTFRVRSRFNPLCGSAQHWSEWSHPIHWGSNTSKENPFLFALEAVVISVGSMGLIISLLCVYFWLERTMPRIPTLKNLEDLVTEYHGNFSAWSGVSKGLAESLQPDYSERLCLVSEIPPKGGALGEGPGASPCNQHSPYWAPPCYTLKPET

CD8 on CD8+ T cells = target: T2, CD8 on CD8+ T cells (UniProt P01732 22-235); experiment: FACS
T2 construct: whole, on cells

[2] = target: human IL-12 receptor complex (IL-12Rβ1, IL-12Rβ2) (human, UniProt P42701 24-662; Q99665 24-862); experiment: cell-based or functional assay
[3] = target: IL-23 receptor complex (IL-12Rβ1, IL-23R) (UniProt P42701 24-662; Q5VWK5 24-629, limits assumed); experiment: cell-based or functional assay
Sequence of IL-23 receptor complex (IL-12Rβ1, IL-23R) (Q5VWK5 24-629 limits assumed, chain 2 of 2, other chains not shown): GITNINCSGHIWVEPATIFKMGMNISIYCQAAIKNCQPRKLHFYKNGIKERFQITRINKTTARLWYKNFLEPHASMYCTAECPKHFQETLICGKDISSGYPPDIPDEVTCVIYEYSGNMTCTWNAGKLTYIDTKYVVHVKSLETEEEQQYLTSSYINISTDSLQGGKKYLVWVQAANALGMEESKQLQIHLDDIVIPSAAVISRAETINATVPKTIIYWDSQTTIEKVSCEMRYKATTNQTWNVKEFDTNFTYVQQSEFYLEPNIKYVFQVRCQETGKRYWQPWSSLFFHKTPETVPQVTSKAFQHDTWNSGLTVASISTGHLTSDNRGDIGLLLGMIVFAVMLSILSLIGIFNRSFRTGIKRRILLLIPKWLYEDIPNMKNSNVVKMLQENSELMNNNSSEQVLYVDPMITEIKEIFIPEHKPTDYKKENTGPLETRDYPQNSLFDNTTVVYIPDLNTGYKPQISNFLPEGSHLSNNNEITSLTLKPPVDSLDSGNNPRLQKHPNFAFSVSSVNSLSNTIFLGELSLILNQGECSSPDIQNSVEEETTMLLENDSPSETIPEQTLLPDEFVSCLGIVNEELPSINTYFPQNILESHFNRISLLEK

T2 sequence (P01732 22-235): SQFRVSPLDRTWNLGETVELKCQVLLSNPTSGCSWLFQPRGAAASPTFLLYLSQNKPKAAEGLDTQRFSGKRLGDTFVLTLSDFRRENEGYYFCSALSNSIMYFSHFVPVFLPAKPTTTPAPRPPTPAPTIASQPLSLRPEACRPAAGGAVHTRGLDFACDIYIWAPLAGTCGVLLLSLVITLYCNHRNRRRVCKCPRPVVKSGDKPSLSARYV
Sequence of human IL-12 receptor complex (IL-12Rβ1, IL-12Rβ2) (Q99665 24-862, chain 2 of 2, other chains not shown): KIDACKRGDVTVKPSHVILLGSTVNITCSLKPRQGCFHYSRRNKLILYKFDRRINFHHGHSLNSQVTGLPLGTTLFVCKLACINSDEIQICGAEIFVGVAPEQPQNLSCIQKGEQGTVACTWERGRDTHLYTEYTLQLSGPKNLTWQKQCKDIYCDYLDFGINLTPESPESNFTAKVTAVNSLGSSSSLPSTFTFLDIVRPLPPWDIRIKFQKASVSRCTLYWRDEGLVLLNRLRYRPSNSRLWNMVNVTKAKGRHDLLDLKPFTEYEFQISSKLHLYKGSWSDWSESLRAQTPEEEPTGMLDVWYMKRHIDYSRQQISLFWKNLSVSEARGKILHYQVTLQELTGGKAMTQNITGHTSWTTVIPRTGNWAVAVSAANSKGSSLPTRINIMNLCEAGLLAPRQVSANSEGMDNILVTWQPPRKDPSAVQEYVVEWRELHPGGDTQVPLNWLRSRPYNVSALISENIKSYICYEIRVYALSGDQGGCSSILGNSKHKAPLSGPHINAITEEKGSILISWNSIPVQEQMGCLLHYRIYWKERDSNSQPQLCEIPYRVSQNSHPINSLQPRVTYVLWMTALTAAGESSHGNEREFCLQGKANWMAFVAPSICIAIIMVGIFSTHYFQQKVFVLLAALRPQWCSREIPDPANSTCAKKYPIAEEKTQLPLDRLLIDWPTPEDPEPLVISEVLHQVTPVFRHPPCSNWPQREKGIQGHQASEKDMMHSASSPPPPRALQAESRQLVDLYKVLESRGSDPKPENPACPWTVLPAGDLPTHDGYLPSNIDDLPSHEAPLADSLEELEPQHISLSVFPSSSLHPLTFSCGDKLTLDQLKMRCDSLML

binding result (CD8 on CD8+ T cells): no binding
IL-23 biological activity (IFN-γ release), CD4+ T cells [3]: 29%
IL-23 biological activity (IFN-γ release), CD8+ T cells [3]: 1.5%
B4: Fab-IL-23(F60A)-Fc-CD4 Ab (other)
light: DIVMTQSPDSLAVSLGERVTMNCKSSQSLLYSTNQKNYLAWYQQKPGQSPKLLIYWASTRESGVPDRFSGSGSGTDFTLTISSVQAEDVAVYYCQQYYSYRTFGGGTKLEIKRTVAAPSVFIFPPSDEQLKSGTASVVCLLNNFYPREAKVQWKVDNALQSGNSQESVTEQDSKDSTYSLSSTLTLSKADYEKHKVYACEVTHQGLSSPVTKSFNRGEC
heavy 1: QVQLQQSGPEVVKPGASVKMSCKASGYTFTSYVIHWVRQKPGQGLDWIGYINPYNDGTDYDEKFKGKATLTSDTSTSTAYMELSSLRSEDTAVYYCAREKDNYATGAWFAYWGQGTLVTVSSASTKGPSVFPLAPSSKSTSGGTAALGCLVKDYFPEPVTVSWNSGALTSGVHTFPAVLQSSGLYSLSSVVTVPSSSLGTQTYICNVNHKPSNTKVDKKVEPKSCDKTHTCPPCPAPEKKGGPSVFLFPPKPKDTLMISRTPEVTCVVVDVSHEDPEVKFNWYVDGVEVHNAKTKPREEQYNSTYRVVSVLTVLHQDWLNGKEYKCKVSNKALPAPIEKTISKAKGQPREPQVYVLPPSREEMTKNQVSLLCLVKGFYPSDIAVEWESNGQPENRYMTWPPVLDSDGSFFLYSKLTVDKSRWQQGNVFSCSVMHEALHNHYTQKSLSLSPGK
heavy 2: QVQLQQSGPEVVKPGASVKMSCKASGYTFTSYVIHWVRQKPGQGLDWIGYINPYNDGTDYDEKFKGKATLTSDTSTSTAYMELSSLRSEDTAVYYCAREKDNYATGAWFAYWGQGTLVTVSSASTKGPSVFPLAPSSKSTSGGTAALGCLVKDYFPEPVTVSWNSGALTSGVHTFPAVLQSSGLYSLSSVVTVPSSSLGTQTYICNVNHKPSNTKVDKKVEPKSCDKPGSGIWELKKDVYVVELDWYPDAPGEMVVLTCDTPEEDGITWTLDQSSEVLGSGKTLTIQVKEAGDAGQYTCHKGGEVLSHSLLLLHKKEDGIWSTDILKDQKEPKNKTFLRCEAKNYSGRFTCWWLTTISTDLTFSVKSSRGSSDPQGVTCGAATLSAERVRGDNKEYEYSVECQEDSACPAAEESLPIEVMVDAVHKLKYENYTSSFFIRDIIKPDPPKNLQLKPLKNSRQVEVSWEYPDTWSTPHSYFSLTFCVQVQGKSKREKKDRVFTDKTSATVICRKNASISVRAQDRYYSSSWSEWASVPCSGGGGSGGGGSGGGGSGGGGSGRAVPGGSSPAWTQCQQLSQKLCTLAWSAHPLVGHMDLREEGDEETTNDVPHIQCGDGCDPQGLRDNSQFCLQRIHQGLIFYEKLLGSDIFTGEPSLLPDSPVGQLHASLLGLSQLLQPEGHHWETQQIPSLSPSQPWQRLLLRFKILRSLQAFVAVAARVFAHGAATLSPDKTHTCPPCPAPEDEGGPSVFLFPPKPKDTLMISRTPEVTCVVVDVSHEDPEVKFNWYVDGVEVHNAKTKPREEQYNSTYRVVSVLTVLHQDWLNGKEYKCKVSNKALPAPIEKTISKAKGQPREPQVYVYPPSREEMTKNQVSLTCLVKGFYPSDIAVEWESNGQPENNYKTTPPVLDEDGSFALVSKLTVDKSRWQQGNVFSCSVMHEALHNHYTQKSLSLSPGK
notes: copies: 2 + 1 + 1

binding result (CD8 on CD8+ T cells): no binding
IL-12 biological activity (IFN-γ release), CD4+ T cells [2]: 29.8%
IL-12 biological activity (IFN-γ release), CD8+ T cells [2]: 1.1%
B6: Fab-IL-12(E59A)-Fc-CD4 Ab (other)
light: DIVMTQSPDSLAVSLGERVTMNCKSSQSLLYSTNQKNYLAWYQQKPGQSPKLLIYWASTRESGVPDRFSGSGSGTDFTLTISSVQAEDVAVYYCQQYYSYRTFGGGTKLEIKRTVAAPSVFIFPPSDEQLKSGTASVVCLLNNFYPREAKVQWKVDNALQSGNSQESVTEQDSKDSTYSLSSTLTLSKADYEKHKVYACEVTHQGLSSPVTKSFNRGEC
heavy 1: B4 heavy 1
heavy 2: QVQLQQSGPEVVKPGASVKMSCKASGYTFTSYVIHWVRQKPGQGLDWIGYINPYNDGTDYDEKFKGKATLTSDTSTSTAYMELSSLRSEDTAVYYCAREKDNYATGAWFAYWGQGTLVTVSSASTKGPSVFPLAPSSKSTSGGTAALGCLVKDYFPEPVTVSWNSGALTSGVHTFPAVLQSSGLYSLSSVVTVPSSSLGTQTYICNVNHKPSNTKVDKKVEPKSCDKPGSGIWELKKDVYVVELDWYPDAPGEMVVLTCDTPEEDGITWTLDQSSEVLGSGKTLTIQVKAFGDAGQYTCHKGGEVLSHSLLLLHKKEDGIWSTDILKDQKEPKNKTFLRCEAKNYSGRFTCWWLTTISTDLTFSVKSSRGSSDPQGVTCGAATLSAERVRGDNKEYEYSVECQEDSACPAAEESLPIEVMVDAVHKLKYENYTSSFFIRDIIKPDPPKNLQLKPLKNSRQVEVSWEYPDTWSTPHSYFSLTFCVQVQGKSKREKKDRVFTDKTSATVICRKNASISVRAQDRYYSSSWSEWASVPCSGGGGSGGGGSGGGGSGGGGSGRNLPVATPDPGMFPCLHHSQNLLRAVSNMLQKARQTLEFYPCTSEEIDHEDITKDKTSTVEACLPLELTKNESCLNSRETSFITNGSCLASRKTSFMMALCLSSIYEDLKMYQVEFKTMNAKLLMDPKRQIFLDQNMLAVIDELMQALNFNSETVPQKSSLEEPDFYKTKIKLCILLHAFRIRAVTIDRVMSYLNASDKTHTCPPCPAPEDEGGPSVFLFPPKPKDTLMISRTPEVTCVVVDVSHEDPEVKFNWYVDGVEVHNAKTKPREEQYNSTYRVVSVLTVLHQDWLNGKEYKCKVSNKALPAPIEKTISKAKGQPREPQVYVYPPSREEMTKNQVSLTCLVKGFYPSDIAVEWESNGQPENNYKTTPPVLDEDGSFALVSKLTVDKSRWQQGNVFSCSVMHEALHNHYTQKSLSLSPGK
notes: copies: 2 + 1 + 1

binding result (CD8 on CD8+ T cells): no binding
IL-23 biological activity (IFN-γ release), CD4+ T cells [3]: 6.8%
IL-23 biological activity (IFN-γ release), CD8+ T cells [3]: 0%
B9: Fab-IL-23(E59A/F60A)-Fc-CD4 Ab (other)
light: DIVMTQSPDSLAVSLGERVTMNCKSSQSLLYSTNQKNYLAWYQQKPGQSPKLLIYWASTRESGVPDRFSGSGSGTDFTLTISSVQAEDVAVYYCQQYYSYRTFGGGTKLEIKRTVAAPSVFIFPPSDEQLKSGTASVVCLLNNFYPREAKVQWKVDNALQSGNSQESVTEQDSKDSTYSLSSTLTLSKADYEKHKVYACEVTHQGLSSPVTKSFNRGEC
heavy 1: B4 heavy 1
heavy 2: B4 heavy 2 with E290A

The next lines start with the binder.

B1: anti-CD3 antibody (made in-house) (antibody, V domains shown)
VH: EVQLVESGGGLVQPGRSLRLSCTASGFTFSYFWMNWVRQAPGKGLEWVGEIRLRSDNYATHYAESVKGRFTISRDDSKSIAYLQMNSLKTEDTALYYCTRDWEFTYWGQGTTVTVSS
VL: EIVMTQSPGTLSLSPGESATLSCSASLSVSFMHWFQQKPGHAPRLLIYRTSNLASGVPDRFSGSGSGTDFTLTISRLEPEDFAVYYCQQRSSDPPTFGQGTRLEIKR
Percent IL-2 signal transduction (HEK-IL-2 reporter assay) [1]: 0%
Percent T-cell proliferation (PBMC proliferation assay) [1]: 0%

B2: Fab-IL-12(WT)-Fc-CD4 Ab (other)
light: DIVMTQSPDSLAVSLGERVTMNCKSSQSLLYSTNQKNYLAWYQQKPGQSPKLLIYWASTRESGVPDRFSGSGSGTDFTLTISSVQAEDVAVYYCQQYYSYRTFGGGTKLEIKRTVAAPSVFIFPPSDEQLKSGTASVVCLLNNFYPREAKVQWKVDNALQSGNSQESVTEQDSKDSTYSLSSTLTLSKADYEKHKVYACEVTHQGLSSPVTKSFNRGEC
heavy 1: B4 heavy 1
heavy 2: B6 heavy 2 with A290E
notes: copies: 2 + 1 + 1
binding result (CD8 on CD8+ T cells): no binding
IL-12 biological activity (IFN-γ release), CD4+ T cells [2]: 43%
IL-12 biological activity (IFN-γ release), CD8+ T cells [2]: 25%

B3: Fab-IL-23(WT)-Fc-CD4 Ab (other)
light: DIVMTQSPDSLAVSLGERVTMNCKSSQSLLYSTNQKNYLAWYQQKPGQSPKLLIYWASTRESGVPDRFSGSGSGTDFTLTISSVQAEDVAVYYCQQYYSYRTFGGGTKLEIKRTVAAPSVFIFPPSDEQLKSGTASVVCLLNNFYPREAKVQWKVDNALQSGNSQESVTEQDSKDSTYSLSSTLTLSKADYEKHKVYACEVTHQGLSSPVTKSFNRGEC
heavy 1: B4 heavy 1
heavy 2: B4 heavy 2 with A291F
notes: copies: 2 + 1 + 1
binding result (CD8 on CD8+ T cells): no binding
IL-23 biological activity (IFN-γ release), CD4+ T cells [3]: 34%
IL-23 biological activity (IFN-γ release), CD8+ T cells [3]: 21%

B5: Fab-IL-12(E59A/F60A)-Fc-CD4 Ab (other)
light: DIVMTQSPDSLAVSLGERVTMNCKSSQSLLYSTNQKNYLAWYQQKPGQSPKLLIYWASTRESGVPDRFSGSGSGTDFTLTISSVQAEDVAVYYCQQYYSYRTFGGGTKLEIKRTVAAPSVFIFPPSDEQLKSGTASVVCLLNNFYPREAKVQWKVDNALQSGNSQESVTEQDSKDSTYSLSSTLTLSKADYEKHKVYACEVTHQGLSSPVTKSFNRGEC
heavy 1: B4 heavy 1
heavy 2: B6 heavy 2 with F291A
binding result (CD8 on CD8+ T cells): no binding
IL-12 biological activity (IFN-γ release), CD4+ T cells [2]: 8.2%
IL-12 biological activity (IFN-γ release), CD8+ T cells [2]: 0%

B7: Fab-IL-23(E59A)-Fc-CD4 Ab (other)
light: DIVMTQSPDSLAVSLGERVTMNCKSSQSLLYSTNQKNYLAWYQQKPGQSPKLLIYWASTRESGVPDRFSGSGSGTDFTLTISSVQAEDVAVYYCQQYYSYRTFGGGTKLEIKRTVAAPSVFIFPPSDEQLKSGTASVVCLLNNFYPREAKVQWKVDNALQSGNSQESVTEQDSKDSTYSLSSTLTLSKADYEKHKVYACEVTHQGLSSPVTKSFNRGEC
heavy 1: B4 heavy 1
heavy 2: B4 heavy 2 with E290A, A291F
notes: copies: 2 + 1 + 1
binding result (CD8 on CD8+ T cells): no binding
IL-23 biological activity (IFN-γ release), CD4+ T cells [3]: 24%
IL-23 biological activity (IFN-γ release), CD8+ T cells [3]: 2%

B8: Fab-IL-12(F60A)-Fc-CD4 Ab (other)
light: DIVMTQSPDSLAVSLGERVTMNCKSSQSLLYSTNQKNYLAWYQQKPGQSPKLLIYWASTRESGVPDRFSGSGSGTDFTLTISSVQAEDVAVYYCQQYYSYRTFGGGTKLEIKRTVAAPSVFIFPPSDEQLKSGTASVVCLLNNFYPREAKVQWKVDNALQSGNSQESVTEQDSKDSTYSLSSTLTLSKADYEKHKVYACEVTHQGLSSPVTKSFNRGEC
heavy 1: B4 heavy 1
heavy 2: B6 heavy 2 with A290E, F291A
notes: copies: 2 + 1 + 1
binding result (CD8 on CD8+ T cells): no binding
IL-12 biological activity (IFN-γ release), CD4+ T cells [2]: 32.2%
IL-12 biological activity (IFN-γ release), CD8+ T cells [2]: 1.5%

B10: IL-2 mutant-Fc-CD3 Ab (other, not shown: a dimerising Fc or GST)
light: EIVMTQSPGTLSLSPGESATLSCSASLSVSFMHWFQQKPGHAPRLLIYRTSNLASGVPDRFSGSGSGTDFTLTISRLEPEDFAVYYCQQRSSDPPTFGQGTRLEIKRTVAAPSVFIFPPSDEQLKSGTASVVCLLNNFYPREAKVQWKVDNALQSGNSQESVTEQDSKDSTYSLSSTLTLSKADYEKHKVYACEVTHQGLSSPVTKSFNRGEC
heavy: EVQLVESGGGLVQPGRSLRLSCTASGFTFSYFWMNWVRQAPGKGLEWVGEIRLRSDNYATHYAESVKGRFTISRDDSKSIAYLQMNSLKTEDTALYYCTRDWEFTYWGQGTTVTVSSAS
chain: APTSSSTKKTQLQLEHLLLDLQMILNGINNYKNPKLTDMLTFEFYMPKKATELKHLQCLERELKPLEEVLNLAQSKNFHLRPRDLISNINVIVLELKGSETTFMCEYADETATIVEFLNRWITFCQSIISTLT
Percent IL-2 signal transduction (HEK-IL-2 reporter assay) [1]: 11%
Percent T-cell proliferation (PBMC proliferation assay) [1]: 39%

From patent publication US20240190962A1 (IMMUNOWAKE, published 2024)
